Reference: a protein production outcome set (Wang et al. 2014)

Test: label from the status in PepcDB records
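Also: failed if final PepcDB status was selected cloned or expressed and not failed if soluble or beyond.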

Row | Sequence | protein production
1 | MSDRSSLFDVRSSTSVTLDQVVRRDTVEIPDEAALAMPVQPLSFWQGGARRATALTQDMNLRRWMLGLMTIAMGVAGWKASFDTIALGGVTRLEAVVLTLLAPLFLALSLWFCTALIGFVVLMGRPKDPLGIDSEAPMPKLHTRTAILMPVYNEDAAAVFARLRAMDASIAETGSARNFDIFVISDTRDAQVALAEQACFARFRREANCNVYYRIRKENTGRKAGNVADWVSRWGSAYEHMLVLDADSLMTGEAMVRLADAMERHPGAGLIQTMPMIINGQTIFARTLQFATRLYGRVAWTGLAWWSGSESSFWGHNAIVRTRAFAETCGLPHLPGPKPFGGEVMSHDALESALLRRGGWSVHLAPYLDGSYEESPSNLLDFATRDRRWCRGNIQHVPLIALPGLHWMSRMHLVIGVLSYALSPLWFFCLSAGLISRALMPELKKAAFTMADLKAAAHALIDWSEIQATAWAMIITFVLLFGPKILGAILVLARKGEVKGFGGKRRMAAGLGVEMLLSALVAPMLMFTQTRAIVEILAGKVGGWAAQRRDADKVDFKEAWAAMGWISLSGLILAASFWFTPDLLTATAPILAGLVLAVPLTMLGAHKVAGLKLKANGLFMTPEERRPPAIVRAAVGAACEPPIRWFARNGRPIGPTTKIRDAA | failed
2 | GYRALSFPDPLDSQPVQAIAFYPSTGSEHLSIIHGYRVEASEDAPIAMGRFPLLLLSHGNTGTPLALHDLATSLARQGFVVVAVVHPGDNDRDHSRLGSLSNLYGRPLQISEAISTALLDPVLAPYLNARQ | not failed
3 | MTIRMIPHPIFSSPTKRRREKPDPPARAGAAQPSGPARMTPQQQTEWQQRLIALLESQPPDDDGAHDLSHLHRVWAVARTLLAHYPDADSIVVMAGSYLHDLVNLPKNHPQRQLASHWSAERARQLLADSGLTEAQLDNLAHAIEAHSYSAAIPPRTLEARIVQDADRMDALGPVGLARMFYVSGRMGRALAHPLDPLAEHRGRDDQAWAIDHIDVKLAKLPGMMQTEAGRAMAERKLEWLFHFRDEFCRDWMARLEHHHHHH | not failed
4 | MAGTNSERELLTEGPAIILAFPQLGENIGMVARAMANFGLSELRLVSPRDGWPSEKARSAASRADHVIDGAKLYETLEEALADLNFVYATTARDRDGFKPVRSPIVAARELRHRFKEGEKVGIIFGRERTGLTNAEVALADEIVTFPVNPAFASLNLAQAVLLMSYEWLKTGMTSEDETSFQASQQRPATKEQLHGLCEHLEEA | failed
5 | MITLARTLLLFACLLPSIHVKAEPSLQPHYKIATEADDVVTRVLFDAVSTEFGVSVEYINYASFDAILDAVANEDADFAANITYTDTRAERFSYSRPTNIEYTYLYGLSDSTLDDISRVGVPQNTIYSELIKQYHPELKQVPYKGHNEAVRLLQTGLVDGVVDAINQLKPMLLEGFDAKMLNDQISIKPVSIISKKGHHLEELDTFASFIHGEAVQKQLREQIALYQFELRRSALRDAIKLLPVDLKEPIRIKMESIFPYVVYNPDGTVQGMTADIVLQSCEILDLNCVIISEPNESWESMYRQFMKGEFDILAPLTVSRERHEFSYFPRPHYSPASVMVKRLGYKPNTYSHVSQLISERIGVVKDDFFDQMMTQLLPLKELERFNTQHDLIEALLKGEVDYIPMDTAMLNHFLRLSELVPIEQDTAIGEFYSSQLSIGLVANERGAMLAPYFSRAIAMLGVDKIVAQYDLRPDWRTALEYEVRLATQTQAVFLFVLVLAICVSLYLYRQSNTDNLTGLRNRRSLQVKYRQGVNKDLAILYLDINHFKQINDTYGHLAGDEVLQLLSLKIHRVWSGRSYRIGGDEFILLGYPTQIELSRAVQELSRLDVTDKLCAELKTVTISVGVSEKRKQHMSLEQALHLADEDMYVSKHSSRHYSGSSNYLVQS | failed
6 | MATFSLGKHPHVELCDLLKLEGWSESGAQAKIAIAEGQVKVDGAVETRKRCKIVAGQTVSFAGHSVQVVA | not failed
7 | MNGSADAGPRPRKYVFITGGVVSSLGKGILTSSLGALLRARGYRVTAIKIDPYVNVDAGTMRPYEHGEVFVTADGAETDLDIGHYERFLDMDLSRGNNLTTGQVYLSVIQKERRGEYLSQTVQVIPHITDEIKERIRKVAEEQKAEIVVVEVGGTVGDIESLPFLEAIRQFRFDEGEGNTLYLHLTLVPYLETSEEFKTKPTQHSVATLRGVGIQPDILVLRSARPVPEEVRRKVALFTNVRPGHVFSSPTVEHLYEVPLLLEEQGLGRAVERALGLEAVIPNLSFWQEAVRVLKHPERTVKIAIAGKYVKMPDAYLSLLEALRHAGIKNRARVEVKWVDAESLEAADLDEAFRDVSGILVPGGFGVRGIEGKVRAAQYARERKIPYLGICLGLQIAVIEFARNVAGLKGANSTEFDPHTPHPVIDLMPEQLEVEGLGGTMRLGDWPMRIKPGTLLHRLYGKEEVLERHRHRYEVNPLYVDGLERAGLVVSATTPGMRGRGAGLVEAIELKDHPFFLGLQSHPEFKSRPMRPSPPFVGFVEAALAYQERA | not failed
8 | MRISKTTKIGALTLIALFLLYFGLNYLKGFNVFKRANVYYAAFPEVKNVNIASPVLVNGYKVGVVKSLSFDYKNGRSIVVGIDLESEYRMPKGSHLAIHQTALSGAELRIIQGDPRDGYLNPGDTIRSETPDDIMSVTSNKIVPSVVNMMPKVDSVIVGLANMVNNPNLAVMMENMAATAQRLNRLTASLDKSIGTQLPAVMANTRTITDNVAMLSEELKQLKLEALMAELQATSENLRSFSDQIRNSNGSLGMLLNDKSLYMRLDSMASSADALLRDLKANPKRYVHFSVF | failed
9 | MTRIIPFALAVAALATAGAAQASTMVIGGGAAKECSDSALKGRSDKRSVLACTSALELENLNFRDRARTYVNRGVLQMRQKDFGAARSDFDAAGAIDPNLGEVFVNRGAAYVGEERYREGVEQIDKGLALGVKEPEKAWFNRGLANEGLGDLKAAFRDYSRAAELNPDWPAPKLELTRFSVKRP | failed
10 | MRVVVTGATGFVGQQVVKALSDRGDQVVALVRSPGKAAKQFAGVPRVEWLGYTPKAAGDWFSALEGADAVIHLAGEPLANGRWTPQRKQEIYDSRVVGTQQLVQAIAQCQQRPRVLVSTSAIGYYGTSDTETFVETHAAGNDFLAKVCGDWEAAAQGVTELGVRLVILRFGIVLGEQGALAKLLLPFQLYLGGPLGSGQQWFSWIHQQDLVRLILTAVDQVGMQGVYNATAPEPLRMADFCRILAEVMQRPSWLPVPAPVLQLLLGEGADVVLKGQRVLPERTLATGFEFHYPNAKTALTNLLKPRYTEGSRLEHHHHHH | not failed
11 | MTKGISALSNIATLRSRELGPETFIPYVRHVDETTIALESRALMTMIALDGVSFETSDVRDLNGLHRSLNTLYRNIADERLALWTHVVRRRDNAYPEGRFANPFSDGLNARYRERMVNENLFRNDLYLTLVWHPGRDPAEKAAKLLSRLSKARRSDTELDGQALKHLRDHVADVAAGLQRFGPRQLTLHEHDGILFSEPSEVLHQIVGGRREPIPLTEGRISSAIYSDRVIFGRETIEIRHEADSRYAGMFGFKEYPATTRSGMLDAILTAPFELILTQSFAFTSKADARTIMGRKQNQMVSAGDKAASQIEELGEAMDDLESNRFVLGEHHLTLAVFAPSVKELTDHMAKARAYLTSGGAVVAREDLGLEAAWWAQLPGNFRYRARSGAITSRNFAALAPYHSYPAGKKDGNEWGPAVAMLKTASGSPFYFNFHHGDLGNSFVCGPSGTGKTVLLNFMLSQLEKHGPHMVFFDKDRGADLFVRAAGGTYLPLKNGVATGCAPLKALEFTAENKVFLTGWIAKLVRSGPGELSITELRDIALAVDGVADLPVERRSIGALRTFLNNTDPEGIAARLRRWEKGGPLGWVFDNEADDIGIGARFIGYDMTDFLDNEEIRTPLMAYLFYRIEQLIDGRRIIIVIDEFWKALQDEGFRDLAQNKLKTIRKQNGLMLFATQSPRDAIVSPIAHTIIEQCPTQIFLPNPRGDRADYVDGFKLTEREFELVSRELSVESRRFIVKQGHNSVVAELNLNGFDDELAILSGRTANVELADAIRLEIGEGREDWLAVFHQRRKTA | failed
12 | MSKICQITGKKAMVGNNVSHSKRRTKRVFDVNLFRKKFYWVEQDCWVVLRISAAGLRLINKIGLDAAIKRAAEKGFLNALEHHHHHH | not failed
13 | MGRNFLAILYFCFLFLGFLSCSNVKSMSLMAIGNYEYVRGNYQNAISNYYNLVEDEKYSAWGYYNLGVVYYSLGEYESSLRIFSYAKKTNDIFLNFNVNYNEGVIYYNQGLYHKAEVAFKEALKINPGSYNAKYNLELAIIKKRAVRDSLNSLSVEKGKNFVESNENFLRYIENLERVVWLRKIDENLAVPKEDW | failed
14 | MVALRGKEIDAFLARPDAGRPIVLLYGPDAGLVRERADALIASAVDDPNDPFSLVRLDGDELSAEPSRLVDEAMTVPLFGGQRAIRVRAGSRSFASGIDTLAEMGVKDCRIVIEAGELRPESPLRKACERAKTAVAIGCYPDTERDLAKLMDDELRIANLRIAQDARAALMSFLGGDRQASRNELRKLTLYAHGKGEITLEDVMAVVADASELKLDPIVDGAFAGRPDIVETEFAKAMIAGTYPGVIISAAQRQAAWLHKSALAIADGQPASAVLDGGFPRLHFSRKPAVETALRNFSVARLAAIIEQLATAALDTRKQSTLAAAIAQRTLMAIAANAKRRGLEHHHHHH | failed
15 | MYKLDLPTLMDAFHKVFHVSMLRKCITHQENVISEPPPDLLENMMIVGMLIPNLLGVSSEMVGR | failed
16 | MPRRTATMLASTLMLIALLCAGVFIKVPYAEMSPGPTVNTLGEHDGEPVLQITGHKTYATTGHLNMTTVRVTSADYRMNLVEAVYGWLAHDNKVVPHDTLYPDGKTEEQSTQENAEEFSQSQESAKVAALKELDIPVKSWVIVSTVLKDSPAEGRLHAGDVIKAVDGTAVKAPDDVAELVTKHKPGDDVAFTILPAKEQAAAEKSKTYVPRTKKVTITTAKSDDTGAPRAIVGISAGTDHTFPFTVDIKLADVGGPSAGLMFALGIVDKLTPDDLTGGKFVAGTGTIDDDGKVGPIGGIEMKTVGAREKGAQYFLTPKDNCAAAAKDTPEGLTLVKVNTIDDALDALKDIRTGKTADLPKCTTKG | failed
17 | MFFMLFVLRIPAAFTLMMVGFLGIATVTTWDAALAMLGSELWGSFSNYGLTVIPLFILVGEIVHYAGYNNSLYHATYKWFGHKRGGLAMTTILASAAFSAISGSNTATAATMSAVAIPAMKEYKYHPLLNAGSVAAGATLGVLIPPSIVLVVYGLYTGQSIGKLFFGNVIPSAILTILILLTVVWICRRHPDWGPEGPRSGWGERFAALPEAIDILILFAIIMYALFTGVVTATEAAAVSCFLALVICGLRRKLTWKKLTGALVDTLRISCMVFMIVAGAVIFAKFLTITRLPYETAEWISSLDLPRWMVLWVILACYIIGGCIMDALAFLLVSLPIFYPLVTQLGYDPIWFGQVITIVTTMGSIMPPIGICCYVVSGMSGIPLGTVFRSGLYYMPSYIASIAILMVSPYWTVLVLADLVK | failed
18 | MTEINLLQPMHASTKRDYVQRVVEHDKAESAAVARQWGRDYWDGDRRYGYGGYRYDGRWRPLAQTLIDRYGIKPGMSVLDVGCGKGYLLYEFTQLVPDLTIAGIDVSEYGIANAKEDVRPQLRVGSAVELPYPDHSFDLVVSLGVLHNLPLEDVFRAVSEIERVGRGASKYLMVESFRNEREKANLLYWQLTCLSFHGPDTWAWIYDKCGYRGDHGFIFFE | failed
19 | MERRLTTILAADLSGYSRLMAADEEGTVTRLRHLFADIVRPDLSREGGRLIKTMGDGMLVEFASPVAALRSAVAILQQVARDQVETAPDTRMLFRVGIHLGDVISDGDDILGDAVNIAARLESLATPGGICISRSVHDQVRGKVDAELIELGPQPVKNIPDPVEVWRVGAEGIACAAEKPAVRAELPAVVILPFDNMSADPEQDFLADGIVEDVTTELSRFRTLTVIARNSAFAYKGSHKDVRQIAEELGVRYVVEGSVRRAGDRLRATAQLIDARTGAHVWADRWDRTMADLFDLQDELTAAILSGVEPELGAHERNLARRKPTDSLTAWEMCQKGYSEFTRYTDEGYSQAHAYYTRAIAADPDFALPHALLARLAWVKVITGRTRDPAAEISTGLDHAAQAIERDDRLEIGYVALGVLLAITGREQDAADALDKAEALNPNNAVLHFGRCHACLFMQRLDCDRLERAARTALRLNPKDPMAWGFWFQLGNAFTFRDIDAAEPEALAAYETACRFANADYFVFMATALKHAKLGNRDKAAHYLAQARERYPALTAEFWRRAFRFPIWSRWVAADEPNIQLLIDLGLPQK | failed
